According to publication PMC5599240:

Molecular target: GluA2 flip receptor, unedited at the pore site (Q-containing), wild type (UniProt P19491)
Sequence of UniProt P19491 (P19491 other isoform, or with tags, fused parts or gaps): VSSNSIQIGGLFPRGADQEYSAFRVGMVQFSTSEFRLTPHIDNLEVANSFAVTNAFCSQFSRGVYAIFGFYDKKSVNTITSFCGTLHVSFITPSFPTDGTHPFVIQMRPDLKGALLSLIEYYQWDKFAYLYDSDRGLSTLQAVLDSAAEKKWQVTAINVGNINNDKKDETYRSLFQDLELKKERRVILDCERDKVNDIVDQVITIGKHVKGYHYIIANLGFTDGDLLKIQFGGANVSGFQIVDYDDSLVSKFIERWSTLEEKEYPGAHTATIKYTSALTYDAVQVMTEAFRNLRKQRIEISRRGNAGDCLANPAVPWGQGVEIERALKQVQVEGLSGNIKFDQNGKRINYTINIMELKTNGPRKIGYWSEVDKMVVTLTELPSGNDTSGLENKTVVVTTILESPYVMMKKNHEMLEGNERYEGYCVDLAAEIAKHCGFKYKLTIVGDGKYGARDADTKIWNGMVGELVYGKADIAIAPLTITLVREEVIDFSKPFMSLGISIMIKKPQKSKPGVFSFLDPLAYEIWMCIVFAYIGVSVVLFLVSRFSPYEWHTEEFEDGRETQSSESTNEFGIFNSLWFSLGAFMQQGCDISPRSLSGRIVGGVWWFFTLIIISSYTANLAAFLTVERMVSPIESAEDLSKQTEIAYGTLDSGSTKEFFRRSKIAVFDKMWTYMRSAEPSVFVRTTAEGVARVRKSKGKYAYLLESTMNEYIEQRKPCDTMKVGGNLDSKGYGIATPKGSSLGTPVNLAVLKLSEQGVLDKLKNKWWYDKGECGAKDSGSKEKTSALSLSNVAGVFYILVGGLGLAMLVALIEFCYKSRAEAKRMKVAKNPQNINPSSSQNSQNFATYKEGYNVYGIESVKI

B1: TARP γ2 (Stargazin), mouse, wild type (natural protein)
chain: MGLFDRGVQMLLTTVGAFAAFSLMTIAVGTDYWLYSRGVCKTKSVSENETSKKNEEVMTHSGLWRTCCLEGNFKGLCKQIDHFPEDADYEADTAEYFLRAVRASSIFPILSVILLFMGGLCIAASEFYKTRHNIILSAGIFFVSAGLSNIIGIIVYISANAGDPSKSDSKKNSYSYGWSFYFGALSFIIAEMVGVLAVHMFIDRHKQLRATARATDYLQASAITRIPSYRYRYQRRSRSSSRSTEPSHSRDASPVGVKGFNTLPSTEISMYTLSRDPLKAATTPTATYNSDRDNSFLQVHNCIQKDSKDSLHANTANRRTTPV
With B1 the coupling energy of a thermodynamic cycle (γ2 wild type or L2 GS with GluA2 wild type or GAG/GSG), superactivation during 7 s of 10 mM glutamate was 1.08 kcal/mol.
